Experimental data: patent US20230212549A1, “COMPOUNDS COMPRISING A […] LIGAND AND USE THEREOF” (priority 2021, published 2023)
Blank lines part the entries; values can stand above or below the binder they belong to. Bridge positions count the residues as written; N and C are the ends.

Tests used:
Assay in all cases: cell-based or functional assay
[1] = target: T1, Caspase-7, P55210
T1 chain: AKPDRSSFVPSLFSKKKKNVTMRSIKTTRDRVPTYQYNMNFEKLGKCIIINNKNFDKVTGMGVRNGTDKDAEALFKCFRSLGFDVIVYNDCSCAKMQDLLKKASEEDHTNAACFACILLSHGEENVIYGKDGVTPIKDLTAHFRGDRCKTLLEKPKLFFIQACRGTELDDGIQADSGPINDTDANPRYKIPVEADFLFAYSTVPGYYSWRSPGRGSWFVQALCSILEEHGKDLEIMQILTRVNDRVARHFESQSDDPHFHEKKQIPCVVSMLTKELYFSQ

[2] = target: T2, Caspase-9, P55211
T2 chain: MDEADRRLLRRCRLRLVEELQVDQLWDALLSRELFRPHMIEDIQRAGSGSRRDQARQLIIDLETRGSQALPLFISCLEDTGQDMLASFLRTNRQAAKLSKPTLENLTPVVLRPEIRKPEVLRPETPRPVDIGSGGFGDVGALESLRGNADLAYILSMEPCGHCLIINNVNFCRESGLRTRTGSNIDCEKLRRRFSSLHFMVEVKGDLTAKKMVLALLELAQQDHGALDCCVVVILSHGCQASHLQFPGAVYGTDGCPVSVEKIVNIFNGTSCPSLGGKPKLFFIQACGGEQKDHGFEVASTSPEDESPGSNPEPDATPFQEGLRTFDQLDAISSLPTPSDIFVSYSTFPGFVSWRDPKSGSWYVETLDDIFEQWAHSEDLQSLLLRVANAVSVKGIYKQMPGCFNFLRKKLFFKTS

[3] = target: T3, COX2(h) (human), P35354
T3 chain: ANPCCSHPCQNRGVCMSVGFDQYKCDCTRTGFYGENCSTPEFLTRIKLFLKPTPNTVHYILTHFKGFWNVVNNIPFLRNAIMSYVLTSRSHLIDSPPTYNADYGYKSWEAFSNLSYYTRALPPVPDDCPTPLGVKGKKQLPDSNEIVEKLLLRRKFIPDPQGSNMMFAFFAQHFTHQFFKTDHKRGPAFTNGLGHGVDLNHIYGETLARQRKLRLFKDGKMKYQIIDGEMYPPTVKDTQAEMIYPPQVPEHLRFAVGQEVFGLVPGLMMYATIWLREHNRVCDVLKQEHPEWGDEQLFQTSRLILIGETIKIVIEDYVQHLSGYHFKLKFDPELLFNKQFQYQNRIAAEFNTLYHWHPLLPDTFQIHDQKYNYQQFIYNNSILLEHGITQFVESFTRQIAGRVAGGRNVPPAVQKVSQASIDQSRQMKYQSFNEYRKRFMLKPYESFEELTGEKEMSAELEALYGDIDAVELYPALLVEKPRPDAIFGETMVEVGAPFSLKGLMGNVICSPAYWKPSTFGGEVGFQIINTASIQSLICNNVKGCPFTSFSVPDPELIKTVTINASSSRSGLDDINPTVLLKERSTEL

[4] = target: T4, Renin, P00797
T4 chain: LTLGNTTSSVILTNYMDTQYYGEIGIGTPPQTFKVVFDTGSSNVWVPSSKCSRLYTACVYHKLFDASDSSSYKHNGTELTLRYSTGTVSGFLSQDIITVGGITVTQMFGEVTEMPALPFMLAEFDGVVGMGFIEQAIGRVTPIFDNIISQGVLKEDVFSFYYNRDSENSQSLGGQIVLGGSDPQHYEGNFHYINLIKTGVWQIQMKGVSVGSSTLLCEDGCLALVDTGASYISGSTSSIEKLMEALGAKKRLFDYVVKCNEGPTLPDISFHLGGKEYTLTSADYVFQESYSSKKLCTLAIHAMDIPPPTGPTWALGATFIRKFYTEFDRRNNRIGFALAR

[5] = target: T5, Matrix metalloprotease 2, P08253
T5 chain: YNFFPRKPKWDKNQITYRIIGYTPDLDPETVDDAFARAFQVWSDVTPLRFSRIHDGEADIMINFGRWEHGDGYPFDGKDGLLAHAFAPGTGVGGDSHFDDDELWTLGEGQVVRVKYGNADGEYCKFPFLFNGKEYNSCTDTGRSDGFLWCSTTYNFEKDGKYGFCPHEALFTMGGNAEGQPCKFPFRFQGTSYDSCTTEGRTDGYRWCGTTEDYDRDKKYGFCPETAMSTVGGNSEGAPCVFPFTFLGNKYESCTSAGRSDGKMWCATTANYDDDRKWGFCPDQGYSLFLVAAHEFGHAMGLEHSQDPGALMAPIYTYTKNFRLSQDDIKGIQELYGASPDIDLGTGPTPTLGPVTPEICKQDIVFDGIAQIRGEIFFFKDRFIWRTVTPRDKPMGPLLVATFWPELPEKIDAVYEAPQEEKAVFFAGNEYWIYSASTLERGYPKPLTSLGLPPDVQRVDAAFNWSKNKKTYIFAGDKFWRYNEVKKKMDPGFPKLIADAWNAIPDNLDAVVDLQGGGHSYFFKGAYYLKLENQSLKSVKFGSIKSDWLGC

[6] = target: T6, Caspase-3, P42574
T6 chain: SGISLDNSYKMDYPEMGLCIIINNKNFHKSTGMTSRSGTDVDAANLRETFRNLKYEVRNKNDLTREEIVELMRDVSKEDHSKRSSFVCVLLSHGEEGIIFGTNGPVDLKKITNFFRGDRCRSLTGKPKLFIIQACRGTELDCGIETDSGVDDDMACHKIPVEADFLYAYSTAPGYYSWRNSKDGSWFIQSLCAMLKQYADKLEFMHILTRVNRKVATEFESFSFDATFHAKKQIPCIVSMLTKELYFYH

[7] = target: Ubiquitin carboxyl-terminal hydrolase 7, Q93009
[8] = target: Matrix metalloprotease 9 (mutant Q279R), P14780
Sequence of Matrix metalloprotease 9 (mutant Q279R), P14780 (P14780 107-707 Q279R): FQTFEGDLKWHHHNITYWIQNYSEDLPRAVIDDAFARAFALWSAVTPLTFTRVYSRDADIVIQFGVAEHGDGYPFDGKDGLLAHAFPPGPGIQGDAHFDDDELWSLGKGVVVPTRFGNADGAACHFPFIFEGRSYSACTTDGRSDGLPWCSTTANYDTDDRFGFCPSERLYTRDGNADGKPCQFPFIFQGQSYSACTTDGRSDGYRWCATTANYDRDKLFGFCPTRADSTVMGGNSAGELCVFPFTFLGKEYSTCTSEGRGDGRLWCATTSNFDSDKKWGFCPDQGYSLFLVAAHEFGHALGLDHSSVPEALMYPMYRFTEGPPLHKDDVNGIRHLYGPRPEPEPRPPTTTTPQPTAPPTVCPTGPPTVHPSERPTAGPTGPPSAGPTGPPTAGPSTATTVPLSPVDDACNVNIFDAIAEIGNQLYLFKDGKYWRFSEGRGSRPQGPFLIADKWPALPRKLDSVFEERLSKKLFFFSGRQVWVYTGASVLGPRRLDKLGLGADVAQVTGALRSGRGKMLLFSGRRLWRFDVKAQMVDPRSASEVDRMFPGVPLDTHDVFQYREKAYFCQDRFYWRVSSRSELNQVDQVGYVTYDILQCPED

Sequence of Ubiquitin carboxyl-terminal hydrolase 7, Q93009 (Q93009 whole entry): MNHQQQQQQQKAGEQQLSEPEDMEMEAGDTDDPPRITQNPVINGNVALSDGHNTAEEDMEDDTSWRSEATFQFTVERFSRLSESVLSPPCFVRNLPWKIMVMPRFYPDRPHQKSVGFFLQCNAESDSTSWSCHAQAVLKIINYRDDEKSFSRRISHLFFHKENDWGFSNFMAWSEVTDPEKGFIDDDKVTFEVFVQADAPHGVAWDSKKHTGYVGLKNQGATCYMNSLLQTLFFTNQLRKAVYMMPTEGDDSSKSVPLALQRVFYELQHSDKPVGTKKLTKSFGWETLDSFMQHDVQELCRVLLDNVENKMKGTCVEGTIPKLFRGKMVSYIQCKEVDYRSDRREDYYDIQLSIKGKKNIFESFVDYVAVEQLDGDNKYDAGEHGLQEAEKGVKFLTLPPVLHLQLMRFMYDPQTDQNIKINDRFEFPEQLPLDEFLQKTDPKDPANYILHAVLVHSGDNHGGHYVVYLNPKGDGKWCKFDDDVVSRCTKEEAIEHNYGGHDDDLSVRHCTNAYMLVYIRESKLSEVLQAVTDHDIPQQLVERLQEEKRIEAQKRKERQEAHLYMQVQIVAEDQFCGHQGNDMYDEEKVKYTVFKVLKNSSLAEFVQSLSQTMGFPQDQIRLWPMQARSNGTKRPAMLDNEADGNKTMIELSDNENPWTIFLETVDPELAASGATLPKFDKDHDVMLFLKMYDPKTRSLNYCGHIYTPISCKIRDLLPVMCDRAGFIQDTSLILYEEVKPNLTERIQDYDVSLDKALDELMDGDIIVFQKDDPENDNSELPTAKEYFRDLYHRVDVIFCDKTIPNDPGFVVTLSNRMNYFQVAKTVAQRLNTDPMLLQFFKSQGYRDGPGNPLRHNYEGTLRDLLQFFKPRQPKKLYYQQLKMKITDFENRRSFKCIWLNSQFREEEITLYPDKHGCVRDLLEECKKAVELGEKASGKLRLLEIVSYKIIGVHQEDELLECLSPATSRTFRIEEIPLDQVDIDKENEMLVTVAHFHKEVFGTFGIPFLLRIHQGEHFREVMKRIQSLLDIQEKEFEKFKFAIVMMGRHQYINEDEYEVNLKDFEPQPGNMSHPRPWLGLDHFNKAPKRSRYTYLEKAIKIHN

B1: Hex-[Cys(tMeBn(DOTA-PP))-Pro-Pro-Thr-Gln-Phe-Cys]-Asp-NH2 (peptide)
peptide: Hex-CPPTQFCD-NH2
modifications: bridge 1-7; not fully specified (bridges); printed as Hex-[Cys(tMeBn(DOTA-PP))-Pro-Pro-Thr-Gln-Phe-Cys]-Asp-NH2
- Percentage inhibition (%) at 1 µM [1]: -3%
- Percentage inhibition (%) at 10 µM [1]: -3%
- Percentage inhibition (%) at 1 µM [2]: 5%
- Percentage inhibition (%) at 10 µM [2]: 8%
- % inhibition of control enzyme activity, compound at 10 µM [3]: -14%
- Percentage inhibition (%) at 1 µM [4]: -1%
- Percentage inhibition (%) at 10 µM [4]: 3%
- Percentage inhibition (%) at 1 µM [5]: 3%
- Percentage inhibition (%) at 10 µM [5]: 3%
- Percentage inhibition (%) at 1 µM [6]: 1%
- Percentage inhibition (%) at 10 µM [6]: -2%
- Percentage inhibition (%) at 1 µM [7]: 5%
- Percentage inhibition (%) at 10 µM [7]: 5%
- Percentage inhibition (%) at 1 µM [8]: 3%
- Percentage inhibition (%) at 10 µM [8]: 2%

- Percentage inhibition (%) at 1 µM [1]: -1%
- Percentage inhibition (%) at 10 µM [1]: -7%
- Percentage inhibition (%) at 1 µM [2]: -1%
- Percentage inhibition (%) at 10 µM [2]: -2%
- % inhibition of control enzyme activity, compound at 10 µM [3]: -22%
- Percentage inhibition (%) at 1 µM [4]: 0%
- Percentage inhibition (%) at 10 µM [4]: -1%
- Percentage inhibition (%) at 1 µM [5]: -1%
- Percentage inhibition (%) at 10 µM [5]: -2%
- Percentage inhibition (%) at 1 µM [6]: -2%
- Percentage inhibition (%) at 10 µM [6]: -1%
- Percentage inhibition (%) at 1 µM [7]: 1%
- Percentage inhibition (%) at 10 µM [7]: 1%
- Percentage inhibition (%) at 1 µM [8]: 3%
- Percentage inhibition (%) at 10 µM [8]: 2%
B2: Hex-[Cys(tMeBn(DOTA-AET))-Pro-Pro-Thr-Gln-Phe-Cys]-OH (peptide)
peptide: Hex-CPPTQFC-OH
modifications: bridge 1-7; not fully specified (bridges); printed as Hex-[Cys(tMeBn(DOTA-AET))-Pro-Pro-Thr-Gln-Phe-Cys]-OH
